Results on twelve molecules are retold here after PMC3527362, “Structural and Functional Insights into (S)-Ureidoglycolate Dehydrogenase, a Metabolic Branch Point Enzyme in Nitrogen Utilization” (PLoS ONE, 2012).

Series [1] has as its target T1, (S)-ureidoglycolate dehydrogenase (AllD) (Escherichia coli, UniProt P77555).
T1 construct: full length, modified pET28b with N-terminal His-tag and TEV site, expressed in E. coli BL21(DE3); tag cut for crystals, kept on mutant enzymes for kinetics; homodimer
In words: X-ray crystal structure, soaking, […] Å. Type of series: binding. The settings on record: ternary complex with NADH; soaked with 7.5 mM oxalurate reaction mixture, glyoxylate modelled in subunit A only, pH 8.1.

For series [2], the target named is T1, (S)-ureidoglycolate dehydrogenase (AllD). In words: X-ray crystal structure, soaking, […] Å. Type of series: binding. As to conditions: 100 mM NADH soak, pH 8.1; one NADH in each subunit; site includes residues of the other subunit.
Substrate in series [3]: NC(=O)N[C@@H](O)C(=O)O
The experiment in a line: purified protein. Type of series: biochemical, Escherichia coli. As to conditions: 3 mM NAD+ (saturating), 30 °C, value in parentheses is standard error.

Substrate in series [4]: NC(=O)c1ccc[n+]([C@@H]2O[C@H](COP(=O)(O)OP(=O)(O)OC[C@H]3O[C@@H](n4cnc5c(N)ncnc54)[C@H](O)[C@@H]3O)[C@@H](O)[C@H]2O)c1
In words: purified protein. Format: biochemical, Escherichia coli. As to conditions: 15.3 mM (S)-ureidoglycolate, 30 °C, value in parentheses is standard error.

Series [5] concerns the molecule itself. The experiment in a line: SEC; size-exclusion chromatography of AllD; conditions not described.

Numbering of substitutions follows the chain as printed. Numbers in names are those of the source.

T1 sequence (P77555 whole entry): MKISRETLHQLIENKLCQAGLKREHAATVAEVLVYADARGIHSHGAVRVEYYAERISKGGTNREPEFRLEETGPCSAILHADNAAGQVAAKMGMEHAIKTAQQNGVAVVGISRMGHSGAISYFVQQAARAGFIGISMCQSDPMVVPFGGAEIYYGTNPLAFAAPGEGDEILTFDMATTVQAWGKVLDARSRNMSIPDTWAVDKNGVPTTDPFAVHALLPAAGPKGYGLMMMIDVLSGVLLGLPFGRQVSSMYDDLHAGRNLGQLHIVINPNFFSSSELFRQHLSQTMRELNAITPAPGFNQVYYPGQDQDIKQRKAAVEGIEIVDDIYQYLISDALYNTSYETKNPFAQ

Consider `O=CC(=O)O` [glyoxylate], for which the “X-ray crystal structure, soaking, 1.77 Å” value in series [1] is reported as 4FJU for the AllD-NADH-glyoxylate ternary complex.
`NC(=O)C1=CN([C@@H]2O[C@H](COP(=O)(O)OP(=O)(O)OC[C@H]3O[C@@H](n4cnc5c(N)ncnc54)[C@H](O)[C@@H]3O)[C@@H](O)[C@H]2O)C=CC1` [NADH]: in series [2], the “X-ray crystal structure, soaking, 1.64 Å” value is recorded as 4H8A for the AllD-NADH binary complex.

B1: (S)-ureidoglycolate dehydrogenase (AllD) (Escherichia coli K-12; Y52F) (protein)
chain: MKISRETLHQLIENKLCQAGLKREHAATVAEVLVYADARGIHSHGAVRVEYFAERISKGGTNREPEFRLEETGPCSAILHADNAAGQVAAKMGMEHAIKTAQQNGVAVVGISRMGHSGAISYFVQQAARAGFIGISMCQSDPMVVPFGGAEIYYGTNPLAFAAPGEGDEILTFDMATTVQAWGKVLDARSRNMSIPDTWAVDKNGVPTTDPFAVHALLPAAGPKGYGLMMMIDVLSGVLLGLPFGRQVSSMYDDLHAGRNLGQLHIVINPNFFSSSELFRQHLSQTMRELNAITPAPGFNQVYYPGQDQDIKQRKAAVEGIEIVDDIYQYLISDALYNTSYETKNPFAQ
notes: full length, modified pET28b with N-terminal His-tag and TEV site, expressed in E. coli BL21(DE3); tag cut for crystals, kept on mutant enzymes for kinetics; homodimer
Consider B1, for which, in series [3] (His-tag kept), the Km was 16.82 (3.92) mM, the kcat turned out to be 1.92 s⁻¹ and the kcat/Km worked out at 110 M⁻¹ s⁻¹.

B2: (S)-ureidoglycolate dehydrogenase (AllD) (Escherichia coli K-12; S43A) (protein)
chain: B1 chain with S43A, F52Y
notes: as for B1
Take B2: in series [3] (His-tag kept), the Km is 10.75 (1.01) mM, the kcat turned out to be 1.37 s⁻¹ and the kcat/Km stood at 130 M⁻¹ s⁻¹.

B3: (S)-ureidoglycolate dehydrogenase (AllD) (Escherichia coli K-12; D141N) (protein)
chain: B1 chain with F52Y, D141N
notes: as for B1
Consider B3, for which, in series [3] (His-tag kept), the Km is 5.84 (0.25) mM, the kcat was determined as 1.97 s⁻¹ and the kcat/Km is 340 M⁻¹ s⁻¹.

B4: (S)-ureidoglycolate dehydrogenase (AllD) (Escherichia coli K-12; D141A) (protein)
chain: B1 chain with F52Y, D141A
notes: as for B1
Take B4: in series [3] (His-tag kept), the Km was 5.27 (0.46) mM, the catalytic constant (kcat) was determined as 1.62 s⁻¹ and the kcat/Km turned out to be 310 M⁻¹ s⁻¹.

B5: (S)-ureidoglycolate dehydrogenase (AllD) from Escherichia coli (enzyme, Escherichia coli str. K-12 substr. DH10b, UniProt P77555 1-349, looked up)
chain: B1 chain with F52Y
notes: (S)-ureidoglycolate dehydrogenase AllD, product of the allD gene of E. coli str; K-12 substr; DH10b; ordered residues in the crystals Met1 to Tyr337/Asn338 (subunit A); Homodimer; Cloned into a modified pET28b with a TEV site between the His-tag and the multicloning sites; also called EC 1.1.1.154; not shown: His-tag, N-terminal, cleaved
Regarding B5, in series [3], the Km is on record as 1.06 (0.08) mM, the kcat came out at 57.1 s⁻¹ and the kcat/Km came out at 54300 M⁻¹ s⁻¹. Also, in series [4], the Km is 0.56 (0.04) mM, the kcat stood at 62.4 s⁻¹ and the kcat/Km worked out at 110000 M⁻¹ s⁻¹. Further, the “stoichiometry N” value in series [5] came to 2.

B6: (S)-ureidoglycolate dehydrogenase (AllD) (Escherichia coli K-12; M251A) (protein)
chain: B1 chain with F52Y, M251A
notes: as for B1
B6: in series [3] (His-tag kept), the Km is reported as 13.15 (1.62) mM, the catalytic constant (kcat) is 46 s⁻¹ and the kcat/Km is 3490 M⁻¹ s⁻¹.

B7: (S)-ureidoglycolate dehydrogenase (AllD) (Escherichia coli K-12; S140A) (protein)
chain: B1 chain with F52Y, S140A
notes: as for B1
For the molecule B7, in series [3] (His-tag kept), the Km is given as 12.38 (2.19) mM, the kcat turned out to be 1.29 s⁻¹ and the kcat/Km turned out to be 100 M⁻¹ s⁻¹.

B8: (S)-ureidoglycolate dehydrogenase (AllD) (Escherichia coli K-12; D141E) (protein)
chain: B1 chain with F52Y, D141E
notes: as for B1
With B8, in series [3] (His-tag kept), the Km is listed as 14.13 (2.37) mM, the kcat was found to be 1.67 s⁻¹ and the kcat/Km is 120 M⁻¹ s⁻¹.

B9: (S)-ureidoglycolate dehydrogenase (AllD) (Escherichia coli K-12; R259A) (protein)
chain: B1 chain with F52Y, R259A
notes: as for B1
On to B9, for which, in series [3] (His-tag kept), the Km is listed as 11.47 (1.25) mM, the kcat is 12 s⁻¹ and the kcat/Km came to 1040 M⁻¹ s⁻¹. Besides, in series [4] (His-tag kept), the Km was 1.49 (0.07) mM, the kcat stood at 9.29 s⁻¹ and the kcat/Km turned out to be 6230 M⁻¹ s⁻¹.

B10: (S)-ureidoglycolate dehydrogenase (AllD) (Escherichia coli K-12; H44A) (protein)
chain: B1 chain with H44A, F52Y
notes: as for B1
For the molecule B10, in series [3] (His-tag kept), the Km is on record as 16.94 (2.04) mM, the kcat was found to be 1.76 s⁻¹ and the kcat/Km worked out at 100 M⁻¹ s⁻¹.
